The values that follow come from patent US10512669.

The target in this test is TACE expressed on resting and LPS-stimulated THP-1 cells, P78536. The test is described as follows: cell-based or functional assay.

Values joined by “and” are separate entries in the source; they are usually repeats but may differ in a detail not shown here. Identical values can stand only once.

TACE expressed on resting and LPS-stimulated THP-1 cells, P78536, sequence (P78536 215-824 limits assumed): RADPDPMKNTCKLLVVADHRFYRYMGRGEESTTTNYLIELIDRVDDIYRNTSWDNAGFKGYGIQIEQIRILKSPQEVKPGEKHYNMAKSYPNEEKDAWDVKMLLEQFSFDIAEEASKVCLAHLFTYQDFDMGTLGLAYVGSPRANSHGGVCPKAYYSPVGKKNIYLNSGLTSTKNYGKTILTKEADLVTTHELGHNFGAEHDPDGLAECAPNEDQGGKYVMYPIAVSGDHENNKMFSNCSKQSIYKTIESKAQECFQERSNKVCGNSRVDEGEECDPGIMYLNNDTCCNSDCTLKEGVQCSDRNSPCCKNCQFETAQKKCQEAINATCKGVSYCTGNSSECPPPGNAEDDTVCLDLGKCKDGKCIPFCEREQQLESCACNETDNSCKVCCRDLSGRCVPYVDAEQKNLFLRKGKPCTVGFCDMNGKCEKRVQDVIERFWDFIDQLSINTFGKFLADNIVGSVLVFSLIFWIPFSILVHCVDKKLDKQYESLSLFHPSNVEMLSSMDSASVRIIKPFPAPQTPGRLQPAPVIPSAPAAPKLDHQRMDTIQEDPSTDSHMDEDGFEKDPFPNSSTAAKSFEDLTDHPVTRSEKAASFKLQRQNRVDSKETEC

For the molecule GFCRCLCRRGVCRCICTR (modifications not checked) [Rhesus θ-defensin-1 (RTD-1)], the IC50, inhibition of TACE in cell-based assay on THP-1 cells was 15 µg/ml and 7.4 µM.
